Patent US20190194284A1
Where two headings read alike, the source gives them in different places. Blank lines part the entries; values can stand above or below the molecule they belong to.

Tests used:
Assay in all cases: cell-based or functional assay
[1] = biological target: T1, type I interferon-α/β receptor (IFNAR), composed of the IFNAR1 and IFNAR2 subunits (human) (UniProt P17181)
T1 sequence (looked up) 1: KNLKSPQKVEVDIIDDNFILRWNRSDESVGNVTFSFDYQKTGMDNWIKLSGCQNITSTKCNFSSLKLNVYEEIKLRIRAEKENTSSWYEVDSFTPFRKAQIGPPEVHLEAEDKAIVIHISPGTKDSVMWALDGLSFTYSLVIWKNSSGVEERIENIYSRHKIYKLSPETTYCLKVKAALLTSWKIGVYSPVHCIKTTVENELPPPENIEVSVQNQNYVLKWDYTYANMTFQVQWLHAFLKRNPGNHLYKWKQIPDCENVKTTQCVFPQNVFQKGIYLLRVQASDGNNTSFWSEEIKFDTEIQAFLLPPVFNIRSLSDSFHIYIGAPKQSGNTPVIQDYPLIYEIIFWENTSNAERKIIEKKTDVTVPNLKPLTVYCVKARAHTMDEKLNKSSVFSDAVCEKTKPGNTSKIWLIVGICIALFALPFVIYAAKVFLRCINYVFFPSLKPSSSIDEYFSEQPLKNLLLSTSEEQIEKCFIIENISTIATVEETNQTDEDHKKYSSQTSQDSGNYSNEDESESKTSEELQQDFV
T1 sequence (looked up) 2: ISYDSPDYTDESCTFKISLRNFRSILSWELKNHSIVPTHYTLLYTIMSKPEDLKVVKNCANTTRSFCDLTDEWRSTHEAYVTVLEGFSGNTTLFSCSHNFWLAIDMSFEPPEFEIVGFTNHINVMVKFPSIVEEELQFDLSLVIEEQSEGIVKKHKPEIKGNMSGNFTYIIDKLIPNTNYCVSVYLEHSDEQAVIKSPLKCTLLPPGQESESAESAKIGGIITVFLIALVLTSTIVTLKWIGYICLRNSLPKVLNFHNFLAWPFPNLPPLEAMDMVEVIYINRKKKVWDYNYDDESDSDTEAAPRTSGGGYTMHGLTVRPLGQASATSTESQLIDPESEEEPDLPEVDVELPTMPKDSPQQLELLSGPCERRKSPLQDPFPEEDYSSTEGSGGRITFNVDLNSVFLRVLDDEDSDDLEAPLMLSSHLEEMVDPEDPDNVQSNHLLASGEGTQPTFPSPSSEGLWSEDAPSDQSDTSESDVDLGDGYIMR

human CD20 (human) = biological target: T2, human CD20 (human) (UniProt P11836)
T2 sequence (looked up): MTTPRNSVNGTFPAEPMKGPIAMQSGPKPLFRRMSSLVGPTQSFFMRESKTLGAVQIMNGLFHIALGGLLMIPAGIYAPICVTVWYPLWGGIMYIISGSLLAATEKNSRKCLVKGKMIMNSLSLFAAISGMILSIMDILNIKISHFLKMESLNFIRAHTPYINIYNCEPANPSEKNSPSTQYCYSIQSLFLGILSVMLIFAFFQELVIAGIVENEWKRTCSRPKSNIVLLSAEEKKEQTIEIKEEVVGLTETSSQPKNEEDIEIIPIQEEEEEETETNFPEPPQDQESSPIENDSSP

[2] = biological target: T1, type I interferon-α/β receptor (IFNAR), composed of the IFNAR1 and IFNAR2 subunits (human); remark: listed apart in the source

- EC50 for pSTAT1 in CD19 negative cells of human PBMCs [1]: 0.592 ng/ml
- EC50 for pSTAT1 in CD19 positive cells of human PBMCs [1]: 0.422 ng/ml
Molecule: wild type human IFN-β (from UniProt P01574 22-187) (ligand)

- EC50 for pSTAT1 in CD19 positive (CD20 positive B) cells of human PBMCs (human CD20 (human)): 97 ng/ml
- Targeting effect (EC50 on CD19 negative cells divided by that on CD19 positive cells) (human CD20 (human)): 7.1 fold
- targeting effect, anti-proliferative activity on Daudi (CD20 positive) versus Wish (CD20 negative) cells (human CD20 (human)): 24.3 fold
- EC50 for pSTAT1 in CD19 negative cells of human PBMCs [2]: 687 ng/ml
B1: huCD20 VHH-20*GGS-huIFNβ-6*His, wild type hIFNβ coupled to anti-huCD20 VHH (P-126) (protein)
chain: QVQLQESGGGLAQAGGSLRLSCAASGRTFSMGWFRQAPGKEREFVAAITYSGGSPYYASSVRGRFTISRDNAKNTVYLQMNSLKPEDTAVYYCAANPTYGSDWNAENWGQGTQVTVSSGGSGGSGGSGGSGGSGGSGGSGGSGGSGGSGGSGGSGGSGGSGGSGGSGGSGGSGGSGGSMSYNLLGFLQRSSNFQCQKLLWQLNGRLEYCLKDRMNFDIPEEIKQLQQFQKEDAALTIYEMLQNIFAIFRQDSSSTGWNETIVENLLANVYHQINHLKTVLEEKLEKEDFTRGKLMSSLHLKRYYGRILHYLKAKEYSHCAWTIVRVEILRNFYFINRLTGYLRNHHHHHH
